Measurements published in patent US20150315260A1 (Sanofi, published 2015).
Starred links: 1 amine or outer side, 2 acyl side, 3 side chain; linkers in the order of their positions; H or OH if unused. Non-standard residues stand in square brackets, D forms with d. Groups on a side chain read outwards from the residue. No end group written: not given here. *: point of attachment. γGlu = O=C(O)[C@H](CCC(=O)[*:2])N[*:1]; Stearoyl = CCCCCCCCCCCCCCCCCC(=O)*; Palmitoyl = CCCCCCCCCCCCCCCC(=O)*; AEEA = NCCOCCOCC(=O)O; Aib = CC(C)(N)C(=O)O

T1: human GIP receptor (human, UniProt P48546 22-466)
T1 sequence (looked up): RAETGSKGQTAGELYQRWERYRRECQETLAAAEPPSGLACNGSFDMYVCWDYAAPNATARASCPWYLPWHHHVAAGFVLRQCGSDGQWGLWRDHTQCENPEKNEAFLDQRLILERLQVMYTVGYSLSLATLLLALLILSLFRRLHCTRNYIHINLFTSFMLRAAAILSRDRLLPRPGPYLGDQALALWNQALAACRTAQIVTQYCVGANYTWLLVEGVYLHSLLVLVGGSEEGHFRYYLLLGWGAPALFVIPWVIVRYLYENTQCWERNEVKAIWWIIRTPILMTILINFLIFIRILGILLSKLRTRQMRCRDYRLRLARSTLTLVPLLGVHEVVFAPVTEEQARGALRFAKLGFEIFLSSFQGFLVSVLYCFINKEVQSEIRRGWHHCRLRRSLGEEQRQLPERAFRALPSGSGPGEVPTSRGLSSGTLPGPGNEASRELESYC

B1: exendin-4 derivative SEQ ID NO: 14 (peptide)
peptide: H[Aib]QGTFTSDLSKQK([γGlu-γGlu-Palmitoyl])DEQRAKLFIEWL[Aib]K[dA]GPSSGAPPPS-NH2
modifications: N-terminus assumed
SMILES: CCCCCCCCCCCCCCCC(=O)N[C@@H](CCC(=O)N[C@@H](CCC(=O)NCCCC[C@H](NC(=O)[C@H](CCC(N)=O)NC(=O)[C@H](CCCCN)NC(=O)[C@H](CO)NC(=O)[C@H](CC(C)C)NC(=O)[C@H](CC(=O)O)NC(=O)[C@H](CO)NC(=O)[C@@H](NC(=O)[C@H](Cc1ccccc1)NC(=O)[C@@H](NC(=O)CNC(=O)[C@H](CCC(N)=O)NC(=O)C(C)(C)NC(=O)[C@@H](N)Cc1c[nH]cn1)[C@@H](C)O)[C@@H](C)O)C(=O)N[C@@H](CC(=O)O)C(=O)N[C@@H](CCC(=O)O)C(=O)N[C@@H](CCC(N)=O)C(=O)N[C@@H](CCCNC(=N)N)C(=O)N[C@@H](C)C(=O)N[C@@H](CCCCN)C(=O)N[C@@H](CC(C)C)C(=O)N[C@@H](Cc1ccccc1)C(=O)N[C@H](C(=O)N[C@@H](CCC(=O)O)C(=O)N[C@@H](Cc1c[nH]c2ccccc12)C(=O)N[C@@H](CC(C)C)C(=O)NC(C)(C)C(=O)N[C@@H](CCCCN)C(=O)N[C@H](C)C(=O)NCC(=O)N1CCC[C@H]1C(=O)N[C@@H](CO)C(=O)N[C@@H](CO)C(=O)NCC(=O)N[C@@H](C)C(=O)N1CCC[C@H]1C(=O)N1CCC[C@H]1C(=O)N1CCC[C@H]1C(=O)N[C@@H](CO)C(N)=O)[C@@H](C)CC)C(=O)O)C(=O)O
B2: exendin-4 derivative SEQ ID NO: 17 (peptide)
peptide: H[Aib]QGTFTSDLSKQK([AEEA-AEEA-γGlu-Stearoyl])DEQRAKLFIEWL[Aib]AGGPSSGAPPPS-NH2
modifications: N-terminus assumed
SMILES: CCCCCCCCCCCCCCCCCC(=O)N[C@@H](CCC(=O)NCCOCCOCC(=O)NCCOCCOCC(=O)NCCCC[C@H](NC(=O)[C@H](CCC(N)=O)NC(=O)[C@H](CCCCN)NC(=O)[C@H](CO)NC(=O)[C@H](CC(C)C)NC(=O)[C@H](CC(=O)O)NC(=O)[C@H](CO)NC(=O)[C@@H](NC(=O)[C@H](Cc1ccccc1)NC(=O)[C@@H](NC(=O)CNC(=O)[C@H](CCC(N)=O)NC(=O)C(C)(C)NC(=O)[C@@H](N)Cc1c[nH]cn1)[C@@H](C)O)[C@@H](C)O)C(=O)N[C@@H](CC(=O)O)C(=O)N[C@@H](CCC(=O)O)C(=O)N[C@@H](CCC(N)=O)C(=O)N[C@@H](CCCNC(=N)N)C(=O)N[C@@H](C)C(=O)N[C@@H](CCCCN)C(=O)N[C@@H](CC(C)C)C(=O)N[C@@H](Cc1ccccc1)C(=O)N[C@H](C(=O)N[C@@H](CCC(=O)O)C(=O)N[C@@H](Cc1c[nH]c2ccccc12)C(=O)N[C@@H](CC(C)C)C(=O)NC(C)(C)C(=O)N[C@@H](C)C(=O)NCC(=O)NCC(=O)N1CCC[C@H]1C(=O)N[C@@H](CO)C(=O)N[C@@H](CO)C(=O)NCC(=O)N[C@@H](C)C(=O)N1CCC[C@H]1C(=O)N1CCC[C@H]1C(=O)N1CCC[C@H]1C(=O)N[C@@H](CO)C(N)=O)[C@@H](C)CC)C(=O)O
B3: exendin-4 derivative SEQ ID NO: 18 (peptide)
peptide: H[Aib]QGTFTSDLSKQK([AEEA-AEEA-AEEA-Stearoyl])DEQRAKLFIEWL[Aib]AGGPSSGAPPPS-NH2
modifications: N-terminus assumed
SMILES: CCCCCCCCCCCCCCCCCC(=O)NCCOCCOCC(=O)NCCOCCOCC(=O)NCCOCCOCC(=O)NCCCC[C@H](NC(=O)[C@H](CCC(N)=O)NC(=O)[C@H](CCCCN)NC(=O)[C@H](CO)NC(=O)[C@H](CC(C)C)NC(=O)[C@H](CC(=O)O)NC(=O)[C@H](CO)NC(=O)[C@@H](NC(=O)[C@H](Cc1ccccc1)NC(=O)[C@@H](NC(=O)CNC(=O)[C@H](CCC(N)=O)NC(=O)C(C)(C)NC(=O)[C@@H](N)Cc1c[nH]cn1)[C@@H](C)O)[C@@H](C)O)C(=O)N[C@@H](CC(=O)O)C(=O)N[C@@H](CCC(=O)O)C(=O)N[C@@H](CCC(N)=O)C(=O)N[C@@H](CCCNC(=N)N)C(=O)N[C@@H](C)C(=O)N[C@@H](CCCCN)C(=O)N[C@@H](CC(C)C)C(=O)N[C@@H](Cc1ccccc1)C(=O)N[C@H](C(=O)N[C@@H](CCC(=O)O)C(=O)N[C@@H](Cc1c[nH]c2ccccc12)C(=O)N[C@@H](CC(C)C)C(=O)NC(C)(C)C(=O)N[C@@H](C)C(=O)NCC(=O)NCC(=O)N1CCC[C@H]1C(=O)N[C@@H](CO)C(=O)N[C@@H](CO)C(=O)NCC(=O)N[C@@H](C)C(=O)N1CCC[C@H]1C(=O)N1CCC[C@H]1C(=O)N1CCC[C@H]1C(=O)N[C@@H](CO)C(N)=O)[C@@H](C)CC
B4: exendin-4 derivative SEQ ID NO: 16 (peptide)
peptide: H[Aib]QGTFTSDLSKQK([AEEA-AEEA-γGlu-Palmitoyl])DEQRAKLFIEWL[Aib]AGGPSSGAPPPS-NH2
modifications: N-terminus assumed
SMILES: CCCCCCCCCCCCCCCC(=O)N[C@@H](CCC(=O)NCCOCCOCC(=O)NCCOCCOCC(=O)NCCCC[C@H](NC(=O)[C@H](CCC(N)=O)NC(=O)[C@H](CCCCN)NC(=O)[C@H](CO)NC(=O)[C@H](CC(C)C)NC(=O)[C@H](CC(=O)O)NC(=O)[C@H](CO)NC(=O)[C@@H](NC(=O)[C@H](Cc1ccccc1)NC(=O)[C@@H](NC(=O)CNC(=O)[C@H](CCC(N)=O)NC(=O)C(C)(C)NC(=O)[C@@H](N)Cc1c[nH]cn1)[C@@H](C)O)[C@@H](C)O)C(=O)N[C@@H](CC(=O)O)C(=O)N[C@@H](CCC(=O)O)C(=O)N[C@@H](CCC(N)=O)C(=O)N[C@@H](CCCNC(=N)N)C(=O)N[C@@H](C)C(=O)N[C@@H](CCCCN)C(=O)N[C@@H](CC(C)C)C(=O)N[C@@H](Cc1ccccc1)C(=O)N[C@H](C(=O)N[C@@H](CCC(=O)O)C(=O)N[C@@H](Cc1c[nH]c2ccccc12)C(=O)N[C@@H](CC(C)C)C(=O)NC(C)(C)C(=O)N[C@@H](C)C(=O)NCC(=O)NCC(=O)N1CCC[C@H]1C(=O)N[C@@H](CO)C(=O)N[C@@H](CO)C(=O)NCC(=O)N[C@@H](C)C(=O)N1CCC[C@H]1C(=O)N1CCC[C@H]1C(=O)N1CCC[C@H]1C(=O)N[C@@H](CO)C(N)=O)[C@@H](C)CC)C(=O)O
B5: exendin-4 derivative SEQ ID NO: 7 (peptide)
peptide: H[Aib]QGTFTSDLSKQK([γGlu-γGlu-Palmitoyl])DEQRAKLFIEWL[Aib]A[dA]GPSSGAPPPS-NH2
modifications: N-terminus assumed
SMILES: CCCCCCCCCCCCCCCC(=O)N[C@@H](CCC(=O)N[C@@H](CCC(=O)NCCCC[C@H](NC(=O)[C@H](CCC(N)=O)NC(=O)[C@H](CCCCN)NC(=O)[C@H](CO)NC(=O)[C@H](CC(C)C)NC(=O)[C@H](CC(=O)O)NC(=O)[C@H](CO)NC(=O)[C@@H](NC(=O)[C@H](Cc1ccccc1)NC(=O)[C@@H](NC(=O)CNC(=O)[C@H](CCC(N)=O)NC(=O)C(C)(C)NC(=O)[C@@H](N)Cc1c[nH]cn1)[C@@H](C)O)[C@@H](C)O)C(=O)N[C@@H](CC(=O)O)C(=O)N[C@@H](CCC(=O)O)C(=O)N[C@@H](CCC(N)=O)C(=O)N[C@@H](CCCNC(=N)N)C(=O)N[C@@H](C)C(=O)N[C@@H](CCCCN)C(=O)N[C@@H](CC(C)C)C(=O)N[C@@H](Cc1ccccc1)C(=O)N[C@H](C(=O)N[C@@H](CCC(=O)O)C(=O)N[C@@H](Cc1c[nH]c2ccccc12)C(=O)N[C@@H](CC(C)C)C(=O)NC(C)(C)C(=O)N[C@@H](C)C(=O)N[C@H](C)C(=O)NCC(=O)N1CCC[C@H]1C(=O)N[C@@H](CO)C(=O)N[C@@H](CO)C(=O)NCC(=O)N[C@@H](C)C(=O)N1CCC[C@H]1C(=O)N1CCC[C@H]1C(=O)N1CCC[C@H]1C(=O)N[C@@H](CO)C(N)=O)[C@@H](C)CC)C(=O)O)C(=O)O
B6: exendin-4 derivative SEQ ID NO: 6 (peptide)
peptide: H[Aib]QGTFTSDLSKQK([γGlu-Stearoyl])DEQRAKLFIEWL[Aib]A[dA]GPSSGAPPPS-NH2
modifications: N-terminus assumed
SMILES: CCCCCCCCCCCCCCCCCC(=O)N[C@@H](CCC(=O)NCCCC[C@H](NC(=O)[C@H](CCC(N)=O)NC(=O)[C@H](CCCCN)NC(=O)[C@H](CO)NC(=O)[C@H](CC(C)C)NC(=O)[C@H](CC(=O)O)NC(=O)[C@H](CO)NC(=O)[C@@H](NC(=O)[C@H](Cc1ccccc1)NC(=O)[C@@H](NC(=O)CNC(=O)[C@H](CCC(N)=O)NC(=O)C(C)(C)NC(=O)[C@@H](N)Cc1c[nH]cn1)[C@@H](C)O)[C@@H](C)O)C(=O)N[C@@H](CC(=O)O)C(=O)N[C@@H](CCC(=O)O)C(=O)N[C@@H](CCC(N)=O)C(=O)N[C@@H](CCCNC(=N)N)C(=O)N[C@@H](C)C(=O)N[C@@H](CCCCN)C(=O)N[C@@H](CC(C)C)C(=O)N[C@@H](Cc1ccccc1)C(=O)N[C@H](C(=O)N[C@@H](CCC(=O)O)C(=O)N[C@@H](Cc1c[nH]c2ccccc12)C(=O)N[C@@H](CC(C)C)C(=O)NC(C)(C)C(=O)N[C@@H](C)C(=O)N[C@H](C)C(=O)NCC(=O)N1CCC[C@H]1C(=O)N[C@@H](CO)C(=O)N[C@@H](CO)C(=O)NCC(=O)N[C@@H](C)C(=O)N1CCC[C@H]1C(=O)N1CCC[C@H]1C(=O)N1CCC[C@H]1C(=O)N[C@@H](CO)C(N)=O)[C@@H](C)CC)C(=O)O

Legend:
Experiment in all cases: cell-based or functional assay
human glucagon receptor = human glucagon receptor (human, UniProt P47871 26-477)
human glucagon receptor, sequence (P47871 26-477): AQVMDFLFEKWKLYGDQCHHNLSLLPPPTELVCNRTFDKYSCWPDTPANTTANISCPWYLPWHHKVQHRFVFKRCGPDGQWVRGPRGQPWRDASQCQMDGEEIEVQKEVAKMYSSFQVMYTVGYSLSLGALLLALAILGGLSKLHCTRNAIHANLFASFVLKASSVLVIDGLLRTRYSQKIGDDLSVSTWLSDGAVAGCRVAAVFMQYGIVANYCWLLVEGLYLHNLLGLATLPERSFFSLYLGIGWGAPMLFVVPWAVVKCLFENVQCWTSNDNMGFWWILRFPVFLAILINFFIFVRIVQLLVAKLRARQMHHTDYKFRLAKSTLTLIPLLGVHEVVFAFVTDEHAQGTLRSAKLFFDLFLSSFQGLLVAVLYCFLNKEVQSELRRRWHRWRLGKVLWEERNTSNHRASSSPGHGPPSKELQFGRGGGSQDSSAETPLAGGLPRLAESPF

human GIP receptor = molecular target: T1, human GIP receptor
human GLP-1 receptor = human GLP-1 receptor (human, UniProt P43220 24-463)

| Binder | EC50 hGlucagon-R (cAMP formation) (human glucagon receptor) [nM] | EC50 hGIP-R (cAMP formation) (human GIP receptor) [nM] | EC50 hGLP-1R (cAMP formation) (human GLP-1 receptor) [nM] |
| --- | --- | --- | --- |
| B1 | 0.194 | 6.53 | 0.0041 |
| B2 | 0.0162 | 0.906 | 0.0028 |
| B3 | 0.0086 | 2.16 | 0.0083 |
| B4 | 0.042 | 1.87 | 0.002 |
| B5 | 0.101 | 7.62 | 0.0034 |
| B6 | 0.136 | 2.76 | 0.0141 |
